Measured values as given in the supplement of paper PMC10567573.

B1: KCNG1 (parent)
chain: AVNLSVSTLPSLREEEEQVRAHAP
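Further: lentivirally expressed fusions sorted by FACS into six bins by GFP to DsRed ratio, PSI derived from sequencing read proportions per bin multiplied by bin number.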

Variants of: B1
Test: protein stability index of a GFP-peptide fusion (GPS, HEK-293T) (PSI 1-6); higher = more stable
Details: c terminus: a fixed tail appended
Work on AVNLSWSTLPSLREEEEQVRAHAP [V6W] yielded a protein stability index of 4.53. AVNLSASTLPSLREEEEQVRAHAP [V6A] showed a protein stability index of 5.14. Variant AVNLSPSTLPSLREEEEQVRAHAP [V6P] has a protein stability index of 5.45. AVNLSRSTLPSLREEEEQVRAHAP [V6R] gave a protein stability index of 5.02. For AVNLSMSTLPSLREEEEQVRAHAP [V6M], the protein stability index was 4.98. Work on AVNLSISTLPSLREEEEQVRAHAP [V6I] yielded a protein stability index of 5.08. Work on AVNLSVSFLPSLREEEEQVRAHAP [T8F] yielded a protein stability index of 3.42. Work on AVNLSVSCLPSLREEEEQVRAHAP [T8C] yielded a protein stability index of 4.67. AVNLSVSMLPSLREEEEQVRAHAP [T8M] showed a protein stability index of 4.53. For AVNLSVSLLPSLREEEEQVRAHAP [T8L], the protein stability index was 4.55. Work on AVNLSVSELPSLREEEEQVRAHAP [T8E] yielded a protein stability index of 4.95. With AVNLSVSALPSLREEEEQVRAHAP [T8A] the protein stability index was 5.28. With AVNLSVSHLPSLREEEEQVRAHAP [T8H] the protein stability index was 4.83. AVNLSVSGLPSLREEEEQVRAHAP [T8G] showed a protein stability index of 5.15. Variant AVNLSVSNLPSLREEEEQVRAHAP [T8N] has a protein stability index of 5.14. AVNLSVSILPSLREEEEQVRAHAP [T8I] showed a protein stability index of 4.12. With AVNLSVSKLPSLREEEEQVRAHAP [T8K] the protein stability index was 4.61. AVNLSVSDLPSLREEEEQVRAHAP [T8D] gave a protein stability index of 5.36. Work on AVNLPVSTLPSLREEEEQVRAHAP [S5P] yielded a protein stability index of 5.36. With AVNLVVSTLPSLREEEEQVRAHAP [S5V] the protein stability index was 4.1. With AVNLNVSTLPSLREEEEQVRAHAP [S5N] the protein stability index was 4.03. AVNLEVSTLPSLREEEEQVRAHAP [S5E] showed a protein stability index of 5.33. With AVNLKVSTLPSLREEEEQVRAHAP [S5K] the protein stability index was 4.47. In the case of AVNLWVSTLPSLREEEEQVRAHAP [S5W], the protein stability index is reported as 3.31. AVNLYVSTLPSLREEEEQVRAHAP [S5Y] showed a protein stability index of 4.59. Variant AVNLRVSTLPSLREEEEQVRAHAP [S5R] has a protein stability index of 3.29. In the case of AVNLLVSTLPSLREEEEQVRAHAP [S5L], the protein stability index is reported as 3.82. With AVNLFVSTLPSLREEEEQVRAHAP [S5F] the protein stability index was 3.79. AVNLTVSTLPSLREEEEQVRAHAP [S5T] gave a protein stability index of 4.59. AVNLGVSTLPSLREEEEQVRAHAP [S5G] showed a protein stability index of 4.93. AVNLIVSTLPSLREEEEQVRAHAP [S5I] showed a protein stability index of 3.86. AVNLQVSTLPSLREEEEQVRAHAP [S5Q] gave a protein stability index of 4.2. AVNLHVSTLPSLREEEEQVRAHAP [S5H] showed a protein stability index of 4.71. Work on AVNLCVSTLPSLREEEEQVRAHAP [S5C] yielded a protein stability index of 4.65. Variant AVNLAVSTLPSLREEEEQVRAHAP [S5A] has a protein stability index of 5.48. With AVNLDVSTLPSLREEEEQVRAHAP [S5D] the protein stability index was 5.24. Work on AVNLMVSTLPSLREEEEQVRAHAP [S5M] yielded a protein stability index of 4.49. Variant AVNLSVNTLPSLREEEEQVRAHAP [S7N] has a protein stability index of 5.02. For AVNLSVHTLPSLREEEEQVRAHAP [S7H], the protein stability index was 5.03. Work on AVNLSVKTLPSLREEEEQVRAHAP [S7K] yielded a protein stability index of 4.94. AVNLSVTTLPSLREEEEQVRAHAP [S7T] showed a protein stability index of 4.95. Work on AVNLSVETLPSLREEEEQVRAHAP [S7E] yielded a protein stability index of 4.47. Work on AVNLSVDTLPSLREEEEQVRAHAP [S7D] yielded a protein stability index of 4.8. For AVNLSVFTLPSLREEEEQVRAHAP [S7F], the protein stability index was 4.11. In the case of AVNLSVATLPSLREEEEQVRAHAP [S7A], the protein stability index is reported as 4.75. Variant AVNLSVITLPSLREEEEQVRAHAP [S7I] has a protein stability index of 3.67. With AVNLSVVTLPSLREEEEQVRAHAP [S7V] the protein stability index was 4.71. With AVNLSVMTLPSLREEEEQVRAHAP [S7M] the protein stability index was 4.53. AVNLSVPTLPSLREEEEQVRAHAP [S7P] showed a protein stability index of 5.09. Work on AVNLSVQTLPSLREEEEQVRAHAP [S7Q] yielded a protein stability index of 4.91. In the case of AVNLSVYTLPSLREEEEQVRAHAP [S7Y], the protein stability index is reported as 4.19. AVNLSVGTLPSLREEEEQVRAHAP [S7G] gave a protein stability index of 5.18. AVNLSVLTLPSLREEEEQVRAHAP [S7L] gave a protein stability index of 3.62. For AVNLSVWTLPSLREEEEQVRAHAP [S7W], the protein stability index was 3.68. In the case of AVNLSVRTLPSLREEEEQVRAHAP [S7R], the protein stability index is reported as 4.93. In the case of AVNLSVCTLPSLREEEEQVRAHAP [S7C], the protein stability index is reported as 4.41. Work on AVNTSVSTLPSLREEEEQVRAHAP [L4T] yielded a protein stability index of 4.9. With AVNHSVSTLPSLREEEEQVRAHAP [L4H] the protein stability index was 5.72. Variant AVNGSVSTLPSLREEEEQVRAHAP [L4G] has a protein stability index of 5.24. Variant AVNFSVSTLPSLREEEEQVRAHAP [L4F] has a protein stability index of 4.51. Variant AVNWSVSTLPSLREEEEQVRAHAP [L4W] has a protein stability index of 4.45. AVNQSVSTLPSLREEEEQVRAHAP [L4Q] showed a protein stability index of 5.44. Work on AVNPSVSTLPSLREEEEQVRAHAP [L4P] yielded a protein stability index of 5.32. AVNCSVSTLPSLREEEEQVRAHAP [L4C] showed a protein stability index of 4.88. In the case of AVNMSVSTLPSLREEEEQVRAHAP [L4M], the protein stability index is reported as 5.05. For AVNDSVSTLPSLREEEEQVRAHAP [L4D], the protein stability index was 5.58. With AVNNSVSTLPSLREEEEQVRAHAP [L4N] the protein stability index was 5.55. Variant AVNESVSTLPSLREEEEQVRAHAP [L4E] has a protein stability index of 5.73. AVNVSVSTLPSLREEEEQVRAHAP [L4V] showed a protein stability index of 5.01. Variant AVNRSVSTLPSLREEEEQVRAHAP [L4R] has a protein stability index of 5.03. Variant AVNISVSTLPSLREEEEQVRAHAP [L4I] has a protein stability index of 4.8. AVNKSVSTLPSLREEEEQVRAHAP [L4K] gave a protein stability index of 5.24. AVNSSVSTLPSLREEEEQVRAHAP [L4S] showed a protein stability index of 5.05. AVNYSVSTLPSLREEEEQVRAHAP [L4Y] gave a protein stability index of 4.98. AVNASVSTLPSLREEEEQVRAHAP [L4A] showed a protein stability index of 4.86. For RVNLSVSTLPSLREEEEQVRAHAP [A1R], the protein stability index was 5.31. WVNLSVSTLPSLREEEEQVRAHAP [A1W] gave a protein stability index of 3.81. With QVNLSVSTLPSLREEEEQVRAHAP [A1Q] the protein stability index was 4.28. EVNLSVSTLPSLREEEEQVRAHAP [A1E] gave a protein stability index of 4.75. Variant NVNLSVSTLPSLREEEEQVRAHAP [A1N] has a protein stability index of 5.02. With LVNLSVSTLPSLREEEEQVRAHAP [A1L] the protein stability index was 4.14. For TVNLSVSTLPSLREEEEQVRAHAP [A1T], the protein stability index was 5.46. With IVNLSVSTLPSLREEEEQVRAHAP [A1I] the protein stability index was 4.48. With GVNLSVSTLPSLREEEEQVRAHAP [A1G] the protein stability index was 4.96. DVNLSVSTLPSLREEEEQVRAHAP [A1D] gave a protein stability index of 5.52. YVNLSVSTLPSLREEEEQVRAHAP [A1Y] gave a protein stability index of 2.47. In the case of FVNLSVSTLPSLREEEEQVRAHAP [A1F], the protein stability index is reported as 2.57. For SVNLSVSTLPSLREEEEQVRAHAP [A1S], the protein stability index was 4.82. MVNLSVSTLPSLREEEEQVRAHAP [A1M] gave a protein stability index of 4.61. Work on CVNLSVSTLPSLREEEEQVRAHAP [A1C] yielded a protein stability index of 5. For VVNLSVSTLPSLREEEEQVRAHAP [A1V], the protein stability index was 4.39. In the case of KVNLSVSTLPSLREEEEQVRAHAP [A1K], the protein stability index is reported as 5.28. HVNLSVSTLPSLREEEEQVRAHAP [A1H] gave a protein stability index of 5.12. With PVNLSVSTLPSLREEEEQVRAHAP [A1P] the protein stability index was 5.12.
